Entries after “also recorded” stand apart in the source; their conditions may differ.
Columns and labels:
lupus-prone NZBWF1 mice [1] = test: Renal function (24 h proteinuria) in spontaneous SLE mouse model NZBWF1; type: in vivo; conditions: CYP 50 mg/kg IP every 10 days, up to week 37
Method: Mice, Study Design and Follow Up
NZB/NZW F1 or NZBWF1/J (Charles-River), NZB/NZW F1 (Jackson, code 100008) are a hybrid cross between NZB/B1NJ (Jackson, code 000684) Female x NZW/LacJ (Jackson, code 001058) Male. NZBWF1/J mice develop an autoimmune disease resembling human systemic lupus erythematosus. The inventors used 58 females (30-35 g/each) aged 15 weeks for the study (4-5 animals per cage). The animals were maintained under standard laboratory conditions, at 20-24° C. and 40-70% relative humidity, with 12-hour fluorescent light/12-hour dark cycle. They were feed standard diet and tap water ad libitum. […]
Dose Selection and Administration.
The selection of the C4BP(β−) dose for in vivo administration was based in previous studies employing complement-related proteins in immune-inflammatory pathologies. Blom et al. (Blom et al. 2009. Ann. Rheum. Dis., 68:136-42) used the C4BP isoform lacking β chain in experimental collagen-induced arthritis (CIA) and collagen antibody-induced arthritis (CAIA) mice to investigate the influence of complement activity in the treatment of rheumatoid arthritis. These authors administered intraperitoneally C4BP (2 mg/mouse) using a multiple dose-regimen once every two days in preventive and therapeutic experiments. Thus, in the current study, C4BP(β−) was administered both intraperitoneally (IP) and subcutaneously (SC) into NZBWF1 mice for three months (between six and nine months of age).
Alperovich et al (Alperovich et al. 2007. Lupus, 16:18-24) administered cyclophosphamide (CYP) to NZBWF1 mice at 50 mg/kg IP every 10 days.
(§1) Both IP and SC administrations for C4BP(β−), CYP and PBS (150 μl/each) were performed with a 25-gauge needle during 30 s, after rinsing the skin with 70% ethanol.
(§2) The detailed administration schedule was as follows (Table 5):
Body weight was determined twice monthly from the beginning to the end of follow-up. Mice were placed in metabolic cages to collect 24 h urine specimens before the onset of treatment and monthly thereafter. Blood was obtained from the tail vein at monthly intervals.
Renal Function Analysis: Proteinuria
24 h urinary protein was determined by pyrogallol red (Olympum Autoanalyzer AU400, Hamburg, Germany) in the Veterinary Clinical Biochemistry Laboratory from Universitat Autonoma de Barcelona.
(§3) One-way analysis of variance (ANOVA) with post hoc tests was performed to compare proteinuria throughout the follow up. Survival data were analyzed using Kaplan-Meier curves and long-rank test. P value<0.05 was considered significant. Data are expressed as mean±SEM.

NZBWF1 mice [2] = type: in vivo, mouse; conditions: treatment weeks 24-36
Method: The animals were observed daily throughout the experimental period to check out any local and systemic reaction to the treatment, as well as other signs of illness and/or behavioral changes in order to obtain tolerance and toxicological information. Body weight was determined twice monthly from the beginning to the end of follow-up. Mice were placed in metabolic cages to collect 24 h urine specimens before the onset of treatment and monthly thereafter. Blood was obtained from the tail vein at monthly intervals.

lupus-prone NZBWF1 mice [3] = test: Kaplan-Meier survival in spontaneous SLE mouse model NZBWF1; type: in vivo; conditions: CYP 50 mg/kg IP once every 10 days
Method: NZBWF1/J mice develop an autoimmune disease resembling human systemic lupus erythematosus. […] The animals were maintained under standard laboratory conditions, at 20-24° C. and 40-70% relative humidity, with 12-hour fluorescent light/12-hour dark cycle. They were feed standard diet and tap water ad libitum.
as §1, §2, §3

NZBWF1 mice [4] = conditions: CYP 50 mg/kg IP every 10 days; Alperovich et al. 2007; cited from earlier work
[5] = test system: human monocyte-derived DCs; test: Immunomodulatory activity over human monocyte-derived DCs: CD83/CD86 surface expression by flow cytometry after LPS maturation; type: cell-based; conditions: FIG. 4
Method: In Vitro Functional Assessment of the Immunomodulatory Activity of Full-Length C4BP(β−) and C4BP(β−) Variants Over DCs
The inventors used for the in vitro study both C4BP(β+) (WT) and recombinant C4BP(β−) isoforms, and the above-referred mutants or variants: Mutant 1 and Mutant 2. C4BP(β+) isoforms refer to the major C4BP α7β1 plus the minor C4BP α6β1 isoforms (both in complex with ProS) purified from pooled human plasma.
RPMI 1640 was supplemented with 100 μg/ml of streptomycin, 100 IU/ml of penicillin, 2 mM L-glutamine (all from Invitrogen, Carlsbad, CA) and 10% heat-inactivated fetal bovine serum (Linus, Cultek, Spain) (complete medium), unless otherwise stated.
Peripheral blood mononuclear cells (PBMCs) were obtained from buffy coat preparations collected from healthy donors from the Blood and Tissue Bank (Barcelona, Spain) after Ficoll-Paque™ density centrifugation (GE Healthcare Bio-Sciences AB; Uppsala, Sweden). For surface phenotype determination, monocytes were plated at 1×10^6 cells/ml in 60 mm culture plates (Corning, Spain), in RPMI 1640 medium without serum, and allowed to adhere for 2 h at 37° C. in 5% CO2. The non-adherent cells were removed by washing in PBS.
Monocyte-derived DCs were generated supplementing the monocyte cultures with complete RPMI 1640 medium plus GM-CSF (800 UI/ml) and IL-4 (500 UI/ml) (both from Gentaur, Kampenhout, Belgium) at day 0 and day 3 of culture. For DC maturation, at day 5 iDCs were further stimulated for 48 h with 5 μg/ml LPS (Escherichia coli 055.B5, Sigma L2880, Copenhagen, Denmark).
Staining using the fluorescent dye 7-amino-actinomycin D (7-AAD) (BD Pharmigen) and flow cytometry analysis was employed to assess the viability status of C4BP-treated and untreated DCs.
Cell surface phenotypes were analyzed by flow cytometry using the following mAbs: FITC-conjugated anti-CD83 (HB15a) and PE-conjugated anti-CD86 (HA5.2B7) (all from Beckman-Coulter). The respective isotype controls FITC-conjugated anti-IgG2b (H2) and PE-conjugated anti-IgG2b (H2), were from the same commercial sources. After washing with PBS, cells were subsequently stained with 3 μl mAb/10^5 cells in 100 μl of FACS buffer (PBS containing 1% BSA and 0.1% sodium azide) for 20 min at room temperature. To exclude dead cells and debris, DCs were gated according to forward scatter (FSC) and side scatter (SSC) parameters. Stained cells were analyzed using a FACSCalibur (Becton Dickinson, Franklin Lakes, NJ) equipped with CellQuestPro software (Becton Dickinson).
In Vitro Functional Assessment of C4BP(β−) Immunomodulatory Activity Over DCs
The inventors used for the in vitro study both C4BP(+) and C4BP(β−) isoforms. C4BP(3+) isoforms refer to the major C4BP α7β1 plus the minor C4BP α6β1 isoforms (both in complex with ProS) purified from pooled human plasma, as previously described (Dahlbäck B. 1983. Biochem J., 209:847-56).

[6] = test system: Balb/c male mice, CAIA model; type: in vivo, mouse
Description: Collagen-antibody induced arthritis (CAIA) is a simple mouse model of human rheumatoid arthritis (RA) induced by the systemic administration of a cocktail of monoclonal antibodies directed against conserved auto-antigenic collagen type II epitopes, followed by a single injection of lipopolysaccharide (LPS). CAIA is a useful model to study the effector inflammatory phase of arthritis without involving the priming phase of the immune response. The murine CAIA model shares several clinical, immunological and pathological features with RA. Therefore, this model is useful to study the pathogenic mechanisms involved in RA disease as well as for testing new therapies.
Balb/c male mice aged 7-8 weeks were supplied by Envigo. The animals were acclimated during 12 days. The animals were maintained in an environmentally controlled room with ventilation, temperature (22±2° C.), relative humidity (35-65%), and cycle light/dark (12 h/12 h). The animals were housed in groups of 3-5 animals/cage. The maintenance diet was supplied by Harlan Interfauna Ibérica, S. L. (“2014 Harlan Teklad Global Diets”) and they were feed diet and water ad libitum.
Plasmatic C4BP(β−) was supplied at a concentration of 6.2 mg/ml. C4BP(β−) solutions were prepared to the desired concentration 0.33 mg/ml (for 50 μg doses) by dilution with Dulbecco's phosphate-buffered saline (DPBS) of C4BP(β−) 6.2 mg/ml stock solution.
Two reference compounds were used: dexamethasone (Sigma, Ref. D1756) and Enbrel® (etanercept) (Pfizer, Ref. 655950).
Reference compound dexamethasone was dissolved in vehicle (0.1% Tween-80+99% carboxymethyl cellulose (CMC) (0.5% w/v) in water at a concentration of 0.1 mg/ml.
Enbrel® was prepared at 6 mg/ml in DPBS by dilution of 50 mg/mL stock solution.
Experimental Procedure Day 0: Arthritis Induction
On day 0, animals for experimental group C4BPd3 were randomly selected (n=8) and identified using tail code numbers and weighted.
Each mouse was sensitized by the administration of 2 mg anti-type II collagen antibodies cocktail (ArthritoMAB™ cocktail solution, 0.2 mL, i.v., day 0) in the caudal vein.
Day 3: LPS Synchronization
Animals were intraperitoneally administered with 0.1 mL of LPS solution (0.7 mg/ml, 70 μg/animal).
50 μg of C4BP(β−) were administered subcutaneously at day 3 to treatment group C4BPd3.
50 μg of C4BP(β−) were administered subcutaneously at day 5 to treatment group C4BPd3.
Day 5: Animal Distribution
On day 5 after sensitization, the rest of the animals developing clinical signs of arthritis (n=18) were evaluated and distributed in base of CAIA+incidence. Animals were homogeneously randomized (arthritis score) into the CAIA control group, dexamethasone (1 mg/kg at days 5-11, p.o.) and Enbrel®-treated groups (30 mg/kg at days 5-11, s.c.) (n=6). Animals were identified using tail code numbers and weighted.
Group 2 was not included in the distribution because of the previous test item administration.
The arthritis score was determined using the criteria of Table 9.
Treatment: • C4BPd3 group: 50 μg of C4BP(β−) were subcutaneously injected to animals on days 3 and 5. Volume: 0.150 mL. • Reference compound treatments and CAIA control groups (days 5-11): • Enbrel®: 30 mg/kg of Enbrel® was subcutaneously administered to Enbrel group from days 5 to 11. Volume: 5 mL/kg. • Dexamethasone: 1 mg/kg dexamethasone was orally administered to dexamethasone group from days 5 to 11. Volume: 10 mL/kg. • CAIA control group: 0.150 mL of DPBS was subcutaneously administered from days 5 to 11. Arthritis Monitoring:
Body weights were registered daily from days 0-12 in C4BPd3 and from days 5-12 in CAIA control, dexamethasone and Enbrel® groups. Arthritis scores were determined by the same observer in order to avoid observer bias.
The study was finished at day 12.
Animals were anesthetized with isoflurane. Ankles and wrists thickness were measured using a dial thickness gauge. Serum samples were collected and stored at −20° C. […]

Row | Molecule | development of proteinuria (lupus-prone NZBWF1 mice [1]) | toxicity and behavioral changes (NZBWF1 mice [2]) | survival (lupus-prone NZBWF1 mice [3]) | histological lesions (NZBWF1 mice [4]) | serum anti-DNA antibodies (NZBWF1 mice [4]) | semi-mature, anti-inflammatory phenotype conferred to LPS-matured MoDCs (immunomodulatory activity) ([5]; MoDCs pre-incubated with 5 μg/ml protein, LPS challenge) | CD83 and CD86 surface marker expression ([5]; human MoDCs, 5 μg/ml C4BP isoform, LPS 5 μg/ml) | protection lasting until day after the arthritis induction ([6]; 50 μg sc at days 3 and 5) [days] | inhibition of arthritis score vs. CAIA controls AUC ([6]; C4BP(β−) 50 μg sc days 3 and 5, dexamethasone 1 mg/kg po days 5-11) [%] | ankle thickness ([6]; day 12, C4BP(β−) 50 μg sc d3 and d5, dexamethasone 1 mg/kg po d5-11, Enbrel 30 mg/kg sc d5-11) [mm] | wrist thickness vs. CAIA control ([6]; day 12, regimens as Table 8) | body weight vs CAIA control group ([6]; mouse, in vivo) | arthritis scores / progression of arthritis ([6]; regimens as Table 8, vs CAIA control group)
1 | O=P1(N(CCCl)CCCl)NCCCO1 (centres unmarked) [CYP, Cyclophosphamide, reference compound] | prevented the development of proteinuria | neither toxicity nor behavioral changes were observed | survived throughout the period of observation; also recorded: increased survival | arrested and reversed almost all histological lesions | appropriately controlled |  |  |  |  |  |  |  | 
2 | C4BP(β−): plasma-purified C4BP minor isoform lacking beta chain; C4BPd3 is the CAIA group given 50 μg sc at days 3 and 5 (protein, UniProt P04003 49-597, looked up, alpha-chain-only isoform, plasma-purified) C4b-binding protein alpha …: NCGPPPTLSFAAPMDITLTETRFKTGTTLKYTCLPGYVRSHSTQTLTCNSDGEWVYNTFCIYKRCRHPGELRNGQVEIKTDLSFGSQIEFSCSEGFFLIGSTTSRCEVQDRGVGWSHPLPQCEIVKCKPPPDIRNGRHSGEENFYAYGFSVTYSCDPRFSLLGHASISCTVENETIGVWRPSPPTCEKITCRKPDVSHGEMVSGFGPIYNYKDTIVFKCQKGFVLRGSSVIHCDADSKWNPSPPACEPNSCINLPDIPHASWETYPRPTKEDVYVVGTVLRYRCHPGYKPTTDEPTTVICQKNLRWTPYQGCEALCCPEPKLNNGEITQHRKSRPANHCVYFYGDEISFSCHETSRFSAICQGDGTWSPRTPSCGDICNFPPKIAHGHYKQSSSYSFFKEEIIYECDKGYILVGQAKLSCSYSHWSAPAPQCKALCRKPELVNGRLSVDKDQYVEPENVTIQCDSGYGVVGPQSITCSGNRTWYPEVPKCEWETPEGCEQVLTGKRLMQCLPNPEDVKMALEVYKLSLEIEQLELQRDSARQSTLDKEL |  | neither toxicity nor behavioral changes were observed |  |  |  | able to confer an analogous semi-mature, anti-inflammatory phenotype | restrain similarly CD83 and CD86 surface marker expression | ≥ 12 | 47 | 2.74±0.08 | No changes | No remarkable differences | significantly ameliorated the progression of arthritis

From US12006343B2, “C4BP-based compounds for treating immunological diseases” (FUNDACIO INSTITUT D'INVESTIGACIO BIOMEDICA DE BELLVITGE …, priority 2017, dated 2024)
